Test system: human LUAD organoids
Experiment: Human LUAD organoid viability / cisplatin-induced killing
Type: cell-based
Description: To date, the first line therapy for advanced KRAS-mutant lung adenocarcinoma (LUAD) consists of platinum-based chemotherapy in combination with the immune checkpoint inhibitor, pembrolizumab, or pembrolizumab alone in patients whose tumors have PD-L1 expression equal or greater than 50%. […] However, tumor resistance to platinum and toxicity is limited in its effectiveness, necessitating the development of strategies to increase sensitivity to cisplatin-induced killing and increase responsiveness to immune checkpoint inhibitors. Increases in GSH contribute to resistance of cisplatin-induced killing. In one study we administered 20 μg/ml of GLRX to human LUAD organoids in the presence or absence of cisplatin.

B1: GLRX: recombinant wild-type glutaredoxin protein, deglutathionylating enzyme, administered directly to cells (protein, UniProt P35754 2-106, looked up)
Glutaredoxin-1: AQEFVNCKIQPGKVVVFIKPTCPYCRRAQEILSQLPIKQGLLEFVDITATNHTNEIQDYLQQLTGARTVPRVFIGKDCIGGCSDLVSLQQSGELLTRLKQIGALQ
20 μg/ml GLRX alone
  viability of human LUAD organoids: did not affect
20 μg/ml GLRX with cisplatin, compared to cisplatin only
  sensitivity to cisplatin-induced tumor organoid killing: strongly increased
